The record followed here is article PMC2752837.

What all share (assay): purified protein
What all share (conditions): 50 mM CHES pH 9.5, 10 mM DTT, 37 °C

For series [1], the system named is N=C(N)NOCC[C@H](N)C(=O)O.
For series [2], the system named is CCOC(=O)[C@H](CCCNC(=N)N)NC(=O)c1ccccc1.
The test system of series [3] is N=C(NO)NCCC[C@H](N)C(=O)O.
In series [4] the test system is N=C(N)NCCCC[C@H](N)C(=O)O.
The subject of series [5] is N=C(N)NCCC[C@H](N)C(=O)NO.

For “truncated PAD (peptidylarginine deiminase, 43-amino acid N-terminal deletion) (Porphyromonas gingivalis W83)”, the Km entry is listed as “(6 ± 1)×10^3 µM” in series [1]; “(18 ± 1)×10^3 µM” in series [2]; “(1.5 ± 0.5)×10^3 µM” in series [3]; “(4.7 ± 0.8)×10^3 µM” in series [4]; “(6.9 ± 0.5)×10^3 µM” in series [5]. For the same substance, the catalytic constant (kcat) in series [1] was found to be 0.0052 s⁻¹; in series [3], 0.0046 s⁻¹; in series [4], 0.11 s⁻¹; in series [5], 0.15 s⁻¹. Further, the kcat/Km in series [1] stood at 0.93 M⁻¹ s⁻¹; in series [2], 0.99 M⁻¹ s⁻¹; in series [3] it was 3 M⁻¹ s⁻¹; in series [4] it was 24 M⁻¹ s⁻¹.
